# Results as given in article PMC10070186 (2023).
# T1: CgnE in the presence of CgnA (400 µM) (Chondromyces crocatus CM c5)
# T1 chain: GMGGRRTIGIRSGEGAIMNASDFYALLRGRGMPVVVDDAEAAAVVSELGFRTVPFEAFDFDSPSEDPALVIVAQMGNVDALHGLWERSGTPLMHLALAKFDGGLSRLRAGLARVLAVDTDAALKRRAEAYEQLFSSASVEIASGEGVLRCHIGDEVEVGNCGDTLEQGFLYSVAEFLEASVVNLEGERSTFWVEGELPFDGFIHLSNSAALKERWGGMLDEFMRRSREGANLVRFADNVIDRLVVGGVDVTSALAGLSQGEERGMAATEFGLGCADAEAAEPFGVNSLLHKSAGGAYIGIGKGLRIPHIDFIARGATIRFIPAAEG
# T2: CgnE (Chondromyces crocatus CM c5)
# T2 chain: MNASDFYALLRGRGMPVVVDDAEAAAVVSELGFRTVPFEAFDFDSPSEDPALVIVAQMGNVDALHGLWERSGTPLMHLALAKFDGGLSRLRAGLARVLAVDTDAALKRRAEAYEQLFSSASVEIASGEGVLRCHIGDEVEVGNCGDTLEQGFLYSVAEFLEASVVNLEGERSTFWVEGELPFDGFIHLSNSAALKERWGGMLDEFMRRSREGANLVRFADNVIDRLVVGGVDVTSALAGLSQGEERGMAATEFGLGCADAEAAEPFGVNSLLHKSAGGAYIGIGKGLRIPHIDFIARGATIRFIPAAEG
# T3: CgnB in the presence of CgnA (400 µM) (Chondromyces crocatus CM c5)
# T3 chain: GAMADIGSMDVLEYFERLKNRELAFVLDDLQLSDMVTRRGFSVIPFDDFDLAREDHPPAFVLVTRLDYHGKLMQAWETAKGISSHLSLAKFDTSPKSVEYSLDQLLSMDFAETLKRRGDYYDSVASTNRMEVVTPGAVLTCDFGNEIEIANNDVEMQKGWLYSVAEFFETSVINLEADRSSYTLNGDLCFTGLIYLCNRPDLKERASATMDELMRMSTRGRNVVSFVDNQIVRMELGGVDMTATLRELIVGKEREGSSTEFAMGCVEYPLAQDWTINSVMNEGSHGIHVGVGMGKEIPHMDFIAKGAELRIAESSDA
# T4: CgnC (Chondromyces crocatus CM c5)
# T4 chain: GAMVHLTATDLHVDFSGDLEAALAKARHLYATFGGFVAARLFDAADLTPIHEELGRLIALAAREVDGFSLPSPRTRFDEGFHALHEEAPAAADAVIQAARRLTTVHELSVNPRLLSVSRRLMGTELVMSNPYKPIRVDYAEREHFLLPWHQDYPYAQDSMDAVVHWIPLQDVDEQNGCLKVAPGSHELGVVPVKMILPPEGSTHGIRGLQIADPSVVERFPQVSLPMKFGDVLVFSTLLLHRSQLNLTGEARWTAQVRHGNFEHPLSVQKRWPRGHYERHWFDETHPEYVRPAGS
# T5: CgnB (Chondromyces crocatus CM c5)
# T5 chain: T3 chain
# B1: CgnC (enzyme)
# chain: T4 chain
# modifications: sequence from Supplementary Table 8 (the excerpt mark inside it is read as contiguous); N-terminal GA is a cloning remnant; dimer by size-exclusion chromatography
# B2: CgnB in the presence of CgnA (400 µM) (complex)
# chain: T3 chain
# modifications: sequence from Supplementary Table 8 (the excerpt mark inside it is read as contiguous); N-terminal GA is a cloning remnant; dimer by size-exclusion chromatography
# How the values were obtained:
# [1] = target: T1, CgnE in the presence of CgnA (400 µM); experiment: CgnA present with CgnC, CgnE titrated
# CgnE [2] = target: T2, CgnE; experiment: MST
# [3] = target: T3, CgnB in the presence of CgnA (400 µM); experiment: CgnA present with CgnC, CgnB titrated
# CgnE [4] = target: T2, CgnE; experiment: MST; CgnA at constant high concentration
# CgnE [5] = target: T2, CgnE; experiment: CgnE titrated
# CgnC = target: T4, CgnC; experiment: MST; CgnA at constant high concentration
# CgnB = target: T5, CgnB; experiment: MST
binder,measurement,setting,value
B1,Kd,[1],900 nM
same,Kd,CgnE [2],1100 nM
same,Kd,[3],110 nM
same,Kd,CgnE [4],900 nM
same,Kd,CgnE [5],1100 nM
B2,Kd,CgnC,110 nM
MKKTIKQISAGDRSKKGN [CgnA leader peptide (CgnA^LP)],Kd,CgnB,78200 nM
